MDC (minimal detectable concentration of Bamlanivimab in the ZF-RBD / SpAB-T7 RNAP sensor, 2.5% human serum) data for one substance are collected here from PMC13389190.

The assay deals with SpAB-T7 RNAP.

Bamlanivimab (antibody), sequence (VH): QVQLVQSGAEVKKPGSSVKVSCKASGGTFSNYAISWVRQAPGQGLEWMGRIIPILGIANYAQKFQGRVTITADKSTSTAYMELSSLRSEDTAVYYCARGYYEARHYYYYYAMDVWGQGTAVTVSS
Bamlanivimab (antibody), sequence (VL): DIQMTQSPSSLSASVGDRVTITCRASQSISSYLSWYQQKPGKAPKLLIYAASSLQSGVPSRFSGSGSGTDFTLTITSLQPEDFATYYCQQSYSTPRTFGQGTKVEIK

Bamlanivimab (antibody) showed an MDC (minimal detectable concentration of Bamlanivimab in the ZF-RBD / SpAB-T7 RNAP sensor, 2.5% human serum) of 12.7 nM.
